Experimental data taken from patent publication US20030175712A1 (published 2003).
Substitutions are numbered along the chain they refer to.

Key:
[1] = target: Gβγ (Ste4p/Ste18p) in yeast cells (S. cerevisiae) (UniProt P18852); assay: cell-based or functional assay
MBP-Far1 H7 = target: T1, MBP-Far1 H7 (S. cerevisiae, UniProt P21268 1-755); assay: in vitro binding of purified MBP-Far1 and GST-Cdc24 fusions
T1 sequence (looked up): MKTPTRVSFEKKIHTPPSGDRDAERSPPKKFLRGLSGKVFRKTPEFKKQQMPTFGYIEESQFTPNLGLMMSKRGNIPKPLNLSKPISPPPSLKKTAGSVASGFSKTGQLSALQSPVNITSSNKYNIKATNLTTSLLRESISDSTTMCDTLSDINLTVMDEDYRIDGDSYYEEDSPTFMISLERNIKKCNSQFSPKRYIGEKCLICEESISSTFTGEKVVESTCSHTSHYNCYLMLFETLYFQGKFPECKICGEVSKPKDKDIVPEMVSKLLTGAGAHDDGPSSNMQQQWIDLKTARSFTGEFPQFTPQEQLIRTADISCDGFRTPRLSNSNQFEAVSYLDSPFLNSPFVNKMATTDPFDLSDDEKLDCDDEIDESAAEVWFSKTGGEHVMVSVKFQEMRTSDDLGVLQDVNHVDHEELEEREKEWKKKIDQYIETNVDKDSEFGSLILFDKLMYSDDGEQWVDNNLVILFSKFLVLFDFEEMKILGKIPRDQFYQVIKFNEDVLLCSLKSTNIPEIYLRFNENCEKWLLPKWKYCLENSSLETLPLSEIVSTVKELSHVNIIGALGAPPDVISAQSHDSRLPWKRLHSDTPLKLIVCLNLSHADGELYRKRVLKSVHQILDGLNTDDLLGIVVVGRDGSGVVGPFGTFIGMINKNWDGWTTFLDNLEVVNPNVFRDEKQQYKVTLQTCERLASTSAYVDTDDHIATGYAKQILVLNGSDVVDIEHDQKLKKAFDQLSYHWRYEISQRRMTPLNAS

MBP-Far1 = target: T2, MBP-Far1 (S. cerevisiae, UniProt P21268 1-830, limits assumed); assay: in vitro binding of fusion proteins purified from E. coli
T2 construct: Expressed and purified from E. coli
T2 sequence (looked up): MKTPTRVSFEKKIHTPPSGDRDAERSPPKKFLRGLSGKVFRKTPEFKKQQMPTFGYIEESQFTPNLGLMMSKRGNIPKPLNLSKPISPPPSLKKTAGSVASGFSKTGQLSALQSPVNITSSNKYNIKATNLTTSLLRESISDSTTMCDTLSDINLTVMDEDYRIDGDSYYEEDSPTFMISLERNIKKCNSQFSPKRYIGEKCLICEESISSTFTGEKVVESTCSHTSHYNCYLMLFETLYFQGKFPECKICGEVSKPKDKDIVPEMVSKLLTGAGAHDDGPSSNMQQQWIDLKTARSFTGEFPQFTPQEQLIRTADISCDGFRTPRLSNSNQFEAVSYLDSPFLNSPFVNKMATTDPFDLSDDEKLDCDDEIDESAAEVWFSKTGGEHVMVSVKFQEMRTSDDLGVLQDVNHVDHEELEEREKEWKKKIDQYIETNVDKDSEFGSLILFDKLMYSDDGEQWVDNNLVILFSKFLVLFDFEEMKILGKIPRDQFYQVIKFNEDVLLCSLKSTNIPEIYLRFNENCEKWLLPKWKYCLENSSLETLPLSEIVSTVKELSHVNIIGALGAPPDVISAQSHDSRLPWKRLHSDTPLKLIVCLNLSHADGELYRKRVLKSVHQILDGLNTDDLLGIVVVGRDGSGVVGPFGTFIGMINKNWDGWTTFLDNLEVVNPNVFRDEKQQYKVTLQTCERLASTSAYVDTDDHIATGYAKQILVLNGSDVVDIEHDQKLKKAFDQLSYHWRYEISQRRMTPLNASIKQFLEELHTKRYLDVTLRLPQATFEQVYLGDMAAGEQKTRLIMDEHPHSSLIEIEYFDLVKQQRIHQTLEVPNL

[2] = target: T3, Cdc24p, two-hybrid construct (limits not stated) (S. cerevisiae, UniProt P11433 1-288); assay: yeast two-hybrid screen
T3 construct: not shown: GAL4 two-hybrid fusion partner
T3 sequence (looked up): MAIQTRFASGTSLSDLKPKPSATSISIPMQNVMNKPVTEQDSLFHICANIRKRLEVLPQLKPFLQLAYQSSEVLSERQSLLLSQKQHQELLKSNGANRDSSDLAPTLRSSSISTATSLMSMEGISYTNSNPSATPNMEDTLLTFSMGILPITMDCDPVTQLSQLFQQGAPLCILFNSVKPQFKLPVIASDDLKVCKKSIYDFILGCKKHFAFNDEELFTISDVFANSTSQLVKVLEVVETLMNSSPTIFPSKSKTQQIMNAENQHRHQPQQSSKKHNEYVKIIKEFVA

3×myc-Cdc24-m1 mutant = target: T4, 3×myc-Cdc24-m1 mutant (S. cerevisiae, UniProt P11433 1-854); assay: co-precipitation with Far1-protein A on IgG-Sepharose from yeast extracts
T4 sequence (looked up): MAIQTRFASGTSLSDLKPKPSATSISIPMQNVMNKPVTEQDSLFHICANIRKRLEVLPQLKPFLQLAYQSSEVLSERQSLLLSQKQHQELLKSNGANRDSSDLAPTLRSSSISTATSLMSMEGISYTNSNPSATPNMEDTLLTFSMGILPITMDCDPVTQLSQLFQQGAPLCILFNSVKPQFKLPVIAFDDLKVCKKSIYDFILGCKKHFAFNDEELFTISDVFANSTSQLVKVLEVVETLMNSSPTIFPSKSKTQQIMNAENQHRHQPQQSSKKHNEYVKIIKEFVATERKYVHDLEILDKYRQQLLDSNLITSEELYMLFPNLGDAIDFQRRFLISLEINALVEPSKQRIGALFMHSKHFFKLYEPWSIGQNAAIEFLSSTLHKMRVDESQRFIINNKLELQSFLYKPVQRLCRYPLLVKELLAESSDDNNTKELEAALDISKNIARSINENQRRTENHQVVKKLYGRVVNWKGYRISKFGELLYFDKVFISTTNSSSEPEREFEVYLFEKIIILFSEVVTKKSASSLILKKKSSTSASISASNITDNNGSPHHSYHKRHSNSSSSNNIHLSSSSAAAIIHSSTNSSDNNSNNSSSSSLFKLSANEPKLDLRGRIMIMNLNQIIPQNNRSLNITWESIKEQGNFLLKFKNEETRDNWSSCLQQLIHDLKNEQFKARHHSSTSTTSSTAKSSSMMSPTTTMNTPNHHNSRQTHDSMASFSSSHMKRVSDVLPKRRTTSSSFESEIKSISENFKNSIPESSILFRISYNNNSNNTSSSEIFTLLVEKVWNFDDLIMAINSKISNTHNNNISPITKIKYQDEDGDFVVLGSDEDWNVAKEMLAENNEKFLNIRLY
Text: Although cdc24-m and far1-s mutants result in similar defects in growth orientation during mating, we set out to determine if these genes function in the same orientation process. […] Cdc24 and Far1 were epitope tagged in order to determine whether these proteins interact in yeast cells. The chronosomal copy of Cdc24 was replaced with a 3×myc tagged Cdc24 and the chromosomal copy of Far1 was replaced with Far1 protein A fusion. Both of these fusion proteins are fully functional. Isolation of Far1-protein A from yeast extracts using IgG-Sepharose co-precipitated 3×myc-Cdc24. In contrast, the 3×myc-Cdc24-m1 mutant was defective in binding Far1 in similar imnmunoprecipitation assays.

Gβγ (Ste4p/Ste18p) in yeast cells (S. cerevisiae), sequence (P18852 1-107): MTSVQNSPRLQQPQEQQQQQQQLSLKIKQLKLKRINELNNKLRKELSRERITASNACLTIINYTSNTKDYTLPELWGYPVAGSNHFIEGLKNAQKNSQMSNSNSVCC

## Cdc24p in CDC24 (wild type) yeast cells (from UniProt P11433 1-854)
[1]
  average cosine of the angle of cell projection relative to the micropipet (orientation in a pheromone gradient): 0.52

B1: GSTCdc24p (1-472 aa) (other, S. cerevisiae, UniProt P11433 1-472, looked up)
chain: MAIQTRFASGTSLSDLKPKPSATSISIPMQNVMNKPVTEQDSLFHICANIRKRLEVLPQLKPFLQLAYQSSEVLSERQSLLLSQKQHQELLKSNGANRDSSDLAPTLRSSSISTATSLMSMEGISYTNSNPSATPNMEDTLLTFSMGILPITMDCDPVTQLSQLFQQGAPLCILFNSVKPQFKLPVIASDDLKVCKKSIYDFILGCKKHFAFNDEELFTISDVFANSTSQLVKVLEVVETLMNSSPTIFPSKSKTQQIMNAENQHRHQPQQSSKKHNEYVKIIKEFVATERKYVHDLEILDKYRQQLLDSNLITSEELYMLFPNLGDAIDFQRRFLISLEINALVEPSKQRIGALFMHSKHFFKLYEPWSIGQNAAIEFLSSTLHKMRVDESQRFIINNKLELQSFLYKPVQRLCRYPLLVKELLAESSDDNNTKELEAALDISKNIARSINENQRRTENHQVVKKLYGRVV
notes: range 1-472; Expressed in E. coli; also called GSTCdc24 fusion; GST Cdc24 fusion (residues 1-472); not shown: glutathione-S-transferase as encoded by pGEX-2T (Pharmacia)
MBP-Far1 H7
  binding result: no binding
MBP-Far1
  binding result: binds

B2: Ste4p mutant (SEQ. I.D. No: 13) (other)
chain: MAHQMDSITYSNNVTQQYIQPQSLQDISAVEEEIQNKIEAARQESKQLHAQINKAKHKIQDASLFQMANKVTSLTKNKINLKPNIVLKGHNNKISDFRWSRDSKRILSASQDGFMLIWDSASGLKQNAIPLDSQWVLSCAISPSSTLVASAGLNNNCTIYRVSKENRVAQNVASIFKGHTCYISDIEFTDNAHILTASGDMTCALWDIPKAKRVRGYSDHLGDVLALAIPEEPNLENSSNTFASCGSDGYTYIWDSRSPSAVQSFYVNDSDINALRFFKDGMSIVAGSDNGAINMYDLRSDCSIATFSLFRGYEERTPTPTYMAANMEYNTAQSPQTLKSTSSSYLDNQGVVSLDFSASGRLMYSCYTDIGCVVWDVLKGEIVGKLEGHGGRVTGVRSSPDGLAVCTGSWDSTMKIWSPGYQ
notes: Isolated in a two-hybrid screen; also called mutant G protein β subunit; I.D. No: 12 (nucleotide); not shown: GAL4 two-hybrid fusion partner
[2]
  binding result: no binding

B3: Ste4p mutant (SEQ. I.D. No: 15) (other)
chain: B2 chain with G216E, V351A
notes: Isolated in a two-hybrid screen; also called mutant G protein β subunit; I.D. No: 14 (nucleotide); not shown: GAL4 two-hybrid fusion partner
[2]
  binding result: no binding

B4: Far1 protein A fusion (other, S. cerevisiae, UniProt P21268 1-830, looked up)
chain: T2 sequence (looked up)
notes: Isolated from yeast extracts on IgG-Sepharose; not shown: protein A moiety
3×myc-Cdc24-m1 mutant
  binding result: no binding
